Assay: yeast display, Sf9 membrane polyspecificity reagent, FACS + sequencing; frameworks hold sequencing errors
Procedure, shortened: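 Using colony PCR, genes from sorted yeast display clones were amplified, then sequenced on MiSeq at 2 × 250 and filtered by CDR length. The clones had been stained with 10% biotinylated, detergent-solubilized Sf9 membrane reagent for 1 hour at 4 °C and sorted by FACS into low and high (top ~1%) gates on anti-HA and streptavidin fluorescence. Polyreactivity labels come from the gate of origin.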

Which “polyreactivity (PSR sort gate)” value does the source give for “QVQLVESGGGLVQAGGSLRLSCAASGSIFYTYAMGGYRPAPGKERELVAAISSGGSTTYADSVKGRFTISRDNAKNTVYLQMTSLKPEDTAVYYCNTSYRKKKRYYYWGQGTQVTVSS” here?
Its value is “high polyreactivity”.

For “QVQLVESGGGLVQAGGSLRLSCAASGSIFYTYAMGWYRQAPGKERELVADITTNGGNTYYADSVKGRFTISRDNAKNTVYLQMNSLKPEDTAVYYCARDRYDEPDEGDYDYWGQGTQVTVSS”, which “polyreactivity (PSR sort gate)” value is on record?
Its value is “low polyreactivity”.

With “QVQLVESGGGLVQAGGSLRLSCAASGSIFYTYVMGWYRQAPGKERELVAAISASGVRTYYADSVKGRFTISRDNAKNTVYLQMNSLKPEDTAVYYCAADRQRADYYWGQGTQVTVSS” as the sequence, how does the “polyreactivity (PSR sort gate)” value read?
Its value is “high polyreactivity”.

For “QVQLVESGGGLVQAGGSLRLSCAASGSIFYTYVMGWYRQAPGKERELVAAISASGVRTYYADSVKGRFTISRDNAKNTVYLQMNSLKPEDTAVYYCAARYATWYFRRGRKTSDYDYWGQGTQVTVSS”, which “polyreactivity (PSR sort gate)” value is on record?
Its value is “high polyreactivity”.

With “QVQLVESGGGLVQAGGSLRLSCAASGSIFYVNAMGWYRQAPGKERELVAAISVRGGRTYYADSVKGRFTISRDNAKNTVYLQMNILNPEDTAVYYCATRISTVGRYDYWGEGTQVTVSS” as the sequence, how does the “polyreactivity (PSR sort gate)” value read?
The value was “high polyreactivity”.

With “QVQLVESGGGLVQAGGSLRLSCAASGSIFYVNGMGWYRQAPGKEREFVARITLSGTSTYYADSVKGRFTISRDNAKNTVYLQMNSLKPEDTAVSYCAAPYFTYGQDDDDYWGQGTQVTVSS” as the sequence, how does the “polyreactivity (PSR sort gate)” value read?
Its value is “low polyreactivity”.

With “QVQLVESGGGLVQAGGSLRLSCAASGSIFYVYAMGGYRQAPGKERELVAAISRRGARTYYADSVKGRFTISRDNAKNTVYLQMNSLKPEDTAVYYCNADQYYTVGYSAEYEYWGQGTQVTVSS” as the sequence, how does the “polyreactivity (PSR sort gate)” value read?
The value was “low polyreactivity”.

For “QVQLVESGGGLVQAGGSLRLSCAASGSIFYVYAMGWYRQAPGKERELVAAISDDGDTYYADSVKGRFTISRDNAKNTVYLQMNSLNPEDTAVYYCAAEGGANEENSSPEYDYWGQGTQVTVSS”, which “polyreactivity (PSR sort gate)” value is on record?
Its value is “low polyreactivity”.

For “QVQLVESGGGLVQAGGSLRLSCAASGSIFYVYAMGWYRQAPGKERELVAAITNYADSVKGRFTISRDNAKNTVYLQMNSQKPPDTAVYYCAADWWRVEMDYWGQGTQVTVSS”, which “polyreactivity (PSR sort gate)” value is on record?
The value was “low polyreactivity”.

For “QVQLVESGGGLVQAGGSLRLSCAASGSIFYVYAMGWYRQAPGKERELVAAITSSGTTNYADSVKGRLTISRDNAKNTVYLQMNSLKPEDTAVYYCAADPDSGQVPFDYWGQGTQVTVSS”, which “polyreactivity (PSR sort gate)” value is on record?
Its value is “low polyreactivity”.

With “QVQLVESGGGLVQAGGSLRLSCAASGSIFYVYAMGWYRQAPGKERELVAAITWSGGSTYYADSVKGRFTISRDNAKNTVYLQMNSLKPEDTAVYYCAADEGYDYPYYYWGQGTQVTVSS” as the sequence, how does the “polyreactivity (PSR sort gate)” value read?
Its value is “high polyreactivity”.

Which “polyreactivity (PSR sort gate)” value does the source give for “QVQLVESGGGLVQAGGSLRLSCAASGSIFYVYAMGWYRQAPGKERELVASINKSGGSTYYADSVKGRFTISRDNAKNTVYLQMNSLKPEDTAVYYCAARTGWPRVGFQYPAHVGFDYWGQGTQVTVSS” here?
Its value is “low polyreactivity”.

For “QVQLVESGGGLVQAGGSLRLSCAASGSIFYVYAMGWYRQAPGKERELVASIRWIGDRTYYADSVKGRFTISRDNAKNTVYLQMNSLKPEDTAVYYCAADPRYYGYYYLTPRYYYWGQGTQVTVSS”, which “polyreactivity (PSR sort gate)” value is on record?
Its value is “high polyreactivity”.

Which “polyreactivity (PSR sort gate)” value does the source give for “QVQLVESGGGLVQAGGSLRLSCAASGSIFYVYAMVWYRQAPGKEREFVASIRTSGSSTYADSVKGRFTISRDNAKNTVYLQMNSLKPEDTAVYYCAAGSITVFWKRTGYRWRGYDYWGQGTQVTVSS” here?
Its value is “low polyreactivity”.

With “QVQLVESGGGLVQAGGSLRLSCAASGSIFYVYGMGWYRQAPGKERELVARITDSGGSTSYADSVKGRFTISRDNAKNTVYLQMNSLKPEDTAVYYCAAYVRPWYNYWGQGTQVTVSS” as the sequence, how does the “polyreactivity (PSR sort gate)” value read?
The value was “low polyreactivity”.

Which “polyreactivity (PSR sort gate)” value does the source give for “QVQLVESGGGLVQAGGSLRLSCAASGSIFYVYTMGWYRQAPGKERELVAAITVSGGRTYYADSVKGRFTISRDNAKNTVYLQLNSLKPEDTAVYYCAADTAWPYYIYWSYDYWGQGTQVTVSS” here?
Its value is “low polyreactivity”.

With “QVQLVESGGGLVQAGGSLRLSCAASGSIFYWNAMGWYRQAPGKERELVAAINYSGDSTYYADSVKGRFTISRDNAKNTVYLQMNSLKPEDTAVYYCNFDYWGQGTQVTVSS” as the sequence, how does the “polyreactivity (PSR sort gate)” value read?
The value was “low polyreactivity”.

For “QVQLVESGGGLVQAGGSLRLSCAASGSIFYWYALGWYRQAPGKERELVAAITYSGDRTYYADSVKGRFTISRDNAKNTVYLQMNSLKPEVTAVYYCAKDRGSGPLDYWGQGTQVTVSS”, which “polyreactivity (PSR sort gate)” value is on record?
Its value is “low polyreactivity”.

For “QVQLVESGGGLVQAGGSLRLSCAASGSIFYWYAMGWYRQAPGKERELVAAISRNGGNTYYADSVKGRFTISRDNAKNTVYLQMNSLKPEDTAVYYCAAQLFVRRWMDYWGQGTQVTVSS”, which “polyreactivity (PSR sort gate)” value is on record?
Its value is “low polyreactivity”.

With “QVQLVESGGGLVQAGGSLRLSCAASGSIFYWYAMGWYRQAPGKERELVASITTAGSTYYADSVKGRFTISRDNAKNTVYLQMNSLKPEDTAVYYCNTVPYGYHGYLYLYTYGYWGQGTQVTVSS” as the sequence, how does the “polyreactivity (PSR sort gate)” value read?
Its value is “high polyreactivity”.

Which “polyreactivity (PSR sort gate)” value does the source give for “QVQLVESGGGLVQAGGSLRLSCAASGSIFYWYAMGWYRQAPGKERELVATITRGGSTNYADSVKGRFTISRDNAKNTVYLQMNSLKPEDTAVYYCAAQRVGHKRSTKLDYWGQGTQVTVSS” here?
The value was “low polyreactivity”.

Which “polyreactivity (PSR sort gate)” value does the source give for “QVQLVESGGGLVQAGGSLRLSCAASGSIFYWYAMGWYRQAPGKERELVAVISSGGSTYYADSVKGRFTISRDNAKNTVYLQMNSLKPEDTAVYYCNAGPLRSGRYTYYYWGQGTQVTVSS” here?
The value was “low polyreactivity”.

Which “polyreactivity (PSR sort gate)” value does the source give for “QVQLVESGGGLVQAGGSLRLSCAASGSIFYWYDMGWYRHAPGKEWELVAAISFNVGSTYADSVKGRFTISRDNAKNTFYLQMNSLKPEDTAVYYCNVDAYRTSYEADVYYYTWIYYWGQGTQVTVSS” here?
Its value is “low polyreactivity”.

For “QVQLVESGGGLVQAGGSLRLSCAASGSIFYYAMGWYREAPGKERELVAAISRSGGSTYYADSVKGRFTISRDNAKNTVYLQMNSLKPEDTAVYYCAKGYRGYSYGYWRQGTQVTVSS”, which “polyreactivity (PSR sort gate)” value is on record?
The value was “high polyreactivity”.

For “QVQLVESGGGLVQAGGSLRLSCAASGSIFYYAMGWYRQAPWKERELVADISTGGSTHYADSVKGRFTISRDNAKNTVYLQMNSLKPEDTAVYYCAKEAWRYRLNFRYNYWGQGTQVTVSS”, which “polyreactivity (PSR sort gate)” value is on record?
Its value is “low polyreactivity”.

With “QVQLVESGGGLVQAGGSLRLSCAASGSIFYYAMGWYRQATGKERELVAAITTGDGTNYADSVKGRFTISRDNAKNTVYLQMNSLKPEDTAVYYCAKSTYKPYYYYFPYDYWGQGTQVTVSS” as the sequence, how does the “polyreactivity (PSR sort gate)” value read?
The value was “low polyreactivity”.

For “QVQLVESGGGLVQAGGSLRLSCAASGSIFYYNAMGWYRPAPGKERELVADISTSGSTYYADSVKGRFTISRDNAKNTVYLQMNSLKPEDTAVYYCNADYLPQEGEFSYPYDYWGQGTQVTVSS”, which “polyreactivity (PSR sort gate)” value is on record?
Its value is “low polyreactivity”.

With “QVQLVESGGGLVQAGGSLRLSCAASGSIFYYNAMGWYRQPPGKERELVAAISWSGDSTYYADSVKGRFTISRDNAKNTVYLQMNSLKPEDTAVYYCNTELVPWTEYWYDYWGQGNQVTVSS” as the sequence, how does the “polyreactivity (PSR sort gate)” value read?
Its value is “low polyreactivity”.

With “QVQLVESGGGLVQAGGSLRLSCAASGSIFYYNARGGYRQAPGKERELVATIRTSGGSTYYADSVKGRFTISRDNAMNTVYVQLNSLKPEDTAVYYCAARDLRKLYSRYPYYYWGQGTQVTVSS” as the sequence, how does the “polyreactivity (PSR sort gate)” value read?
The value was “high polyreactivity”.

For “QVQLVESGGGLVQAGGSLRLSCAASGSIFYYNTMGWYRQAPGKERELVAAISWSGGSTSYADSVKGRFTISRDNAKNTVYLQMNSLKPEDTAVYYCAAKAVGLGKSWRGDDYWGQGTQVTVSS”, which “polyreactivity (PSR sort gate)” value is on record?
The value was “low polyreactivity”.

For “QVQLVESGGGLVQAGGSLRLSCAASGSIFYYNTMGWYRQAPGKERELVAAISWSGGSTSYADSVKWRFTISRDNAKNTVYLQMNSLKPEDTAVYYCNVDYGVHVPPRDYWGQGTQVTVSS”, which “polyreactivity (PSR sort gate)” value is on record?
The value was “low polyreactivity”.

For “QVQLVESGGGLVQAGGSLRLSCAASGSIFYYYAMGCYTQAPGKERELVAAITSGGSTYYADSVNGRFTISRDNAKNSGYLQMNSLKPEDTAVYYCNNAFPYFDDYWGQGTQVTVSS”, which “polyreactivity (PSR sort gate)” value is on record?
Its value is “low polyreactivity”.

Which “polyreactivity (PSR sort gate)” value does the source give for “QVQLVESGGGLVQAGGSLRLSCAASGSIFYYYAMGWDRQENGKESELVAAIDWDGGTTYYADSVMGLFTISRDNAKNTVYLQMNSLKPEDTAVFYCAGEVLYGPGGGYEYWGQGTQVTVSS” here?
Its value is “high polyreactivity”.

With “QVQLVESGGGLVQAGGSLRLSCAASGSIFYYYAMGWYRQAPGKERELVAAITRSGSSTYYADSVKGRFTISRDNAKNTVYLQMNSLKPEDTAVYYCAAKSKRGSRYDSWGQGTQVTVSS” as the sequence, how does the “polyreactivity (PSR sort gate)” value read?
Its value is “high polyreactivity”.

For “QVQLVESGGGLVQAGGSLRLSCAASGSIFYYYAMGWYRQAPGKERELVASISRSGGSTFYADSVKGRFTISRDNAKNTVYLQMNSLKPEDTAVYYCATGWYYSPYNYWGQGTQVTVSS”, which “polyreactivity (PSR sort gate)” value is on record?
The value was “high polyreactivity”.

With “QVQLVESGGGLVQAGGSLRLSCAASGSIFYYYSMGWYRQAPGKERELVARITSGGTNYADSVKGRFTISRDNAKNTVYLQMNSLKPEDTAVYYCNADHSTWLYKRYDYWGQGTQVTVSS” as the sequence, how does the “polyreactivity (PSR sort gate)” value read?
The value was “low polyreactivity”.

With “QVQLVESGGGLVQAGGSLRLSCAASGSIFYYYTRGWSRQAPGKEMELVAAITSGGSTYYADSVKGRFTISRDNAKNTVYLQMNSLKPEDTAVYYCAAPIYYRLWKPGYEYWGQGTQVTVSS” as the sequence, how does the “polyreactivity (PSR sort gate)” value read?
The value was “high polyreactivity”.

Which “polyreactivity (PSR sort gate)” value does the source give for “QVQLVESGGGLVQAGGSLRLSCAASGSIFYYYVMGWYRQAPGKEREFGAAISWGGDSTYYADSVKGRFTISRDNAMYTVYLQMNSLKPEDTAVYYCNADYPWSVVCYAYWGQGTQVTVSS” here?
Its value is “low polyreactivity”.

With “QVQLVESGGGLVQAGGSLRLSCAASGSIIARYAMGWYRQAPGKERELVAAITWSATSTYYADSVKGRFTISRDNAKNTVYLQMNSLKREDTAVYYCNAGASYFLVISQSRRDYWGQGTQVTVSS” as the sequence, how does the “polyreactivity (PSR sort gate)” value read?
Its value is “low polyreactivity”.

For “QVQLVESGGGLVQAGGSLRLSCAASGSIIAYNAMGWYRQAPGKERELVAAISYSGDGTYYADSVKGRFTISRDNANNTVYLQMNSLKPEDTAVYFCDTQIYPLVFYQGDWNDYWGQGTQVTVSS”, which “polyreactivity (PSR sort gate)” value is on record?
Its value is “low polyreactivity”.

With “QVQLVESGGGLVQAGGSLRLSCAASGSIIDVYAMGWYRQAPGKERELVAAISTSGGSTFYADSVKGRFTISRDHAKNTVYLQMNSLKPEDTAVYYCNAAKYPDQWYDEYNYWGQGTQVTVSS” as the sequence, how does the “polyreactivity (PSR sort gate)” value read?
Its value is “low polyreactivity”.

Which “polyreactivity (PSR sort gate)” value does the source give for “QVQLVESGGGLVQAGGSLRLSCAASGSIIFRYNMGWSRQAPGKERELVAAITTGGSTNYADSVKGRFTISRDNAKNTVSLQMNSLKPEDTAVYYCNRDNRRWTRAAVRVDFYYWGQGTQVTVSS” here?
Its value is “high polyreactivity”.

Which “polyreactivity (PSR sort gate)” value does the source give for “QVQLVESGGGLVQAGGSLRLSCAASGSIIGFNGMGWYRQAPGKERELVSAISSTGGSTYYADSVKGRFTISRDNAKNTVYLQMNSLKPEDTAVYICNTDYSKTIGDGYAGFDYWGQGTQGTVSS” here?
The value was “low polyreactivity”.
